Reference: patent publication US9758785B2, “miR-520 microRNAs sensitize cancers to platinum-based therapy” (BAYLOR COLLEGE OF MEDICINE, priority 2012, dated 2017)
“Also recorded” adds a separate entry of the source.

B1: hsa-mir-520a MI0003149 (nucleic acid, listed as Homo sapiens)
chain: CUCAGGCUGUGACCCUCCAGAGGGAAGUACUUUCUGUUGUCUGAGAGAAAAGAAAGUGCUUCCCUUUGGACUGUUUCGGUUUGAG
modifications: expressed or natural sequence
notes: seed 5'aagugcu; mimic or stably expressed

Legend:
Assay type in all cases: cell-based, human
[1] = tested on: SKOV3ip1 cells; assay: Viability (MTS) across cisplatin concentrations, stable microRNA clones
Experimental: (§1) Established ovarian cancer cell lines were obtained from the ATCC (OVCAR8, OVCAR5) and the University of Texas M.D. Anderson Cancer Center (HEYA8, SKOV3ip1). All cell lines were maintained at 37° C. in RPMI 1640 media (Invitrogen, Carlsbad, Calif.) supplemented with 10% fetal bovine serums (Hyclone, Logan, Utah) and 1% penicillin/streptomycin (Gibco, Carlsbad, Calif.). MicroRNA mimics and mimic controls (Dharmacon, Lafayette, Colo.) were transiently transfected into actively growing cultures using Lipofectamine 2000 (Invitrogen, Carlsbad, Calif.). After a 24-hour incubation, transfected cultures were washed, passaged and seeded into 96 well plates. Proliferation and apoptosis were measured at 72, 96 and 120 hours after transfection using standard assays (Cell Titer 96 Aqueous One; Caspase Glo 3/7; Promega, Madison, Wis.). pLemiR expression vectors (Open Biosystems/Thermo, Huntsville, Ala.) were prepared according to manufacturer's instructions and transfected into cells using Fugene 6 (Roche, Indianapolis, Ind.). Following transfection, stable clones were selected using puromycin (Invitrogen) at doses optimized for each line. Rates of proliferation and apoptosis were examined in stable transfectants 24, 48, 72 and 96 hours after selected cells had been passaged and dispensed into 96 well plates. Viability was assessed across a clinically relevant range of cisplatin concentrations using an MTS assay (Promega). Cisplatin was obtained from Teva Pharmaceuticals (Irvine, Calif.).
(§2) For this reason, the inventors created clones of OVCAR8 and SKOV3ip1 ovarian cancer cell lines stably expressing either miR-520h (n=3) and miR-520a (n=3). […] To assess the impact of these microRNAs on cisplatin-induced cell killing, the inventors examined the viability of OVCAR8 and SKOV3ip1 cells stably expressing either microRNA incubated with clinically relevant concentrations of cisplatin. […] It should be noted that SKOV3ip1 cells tolerated only very low levels of miR-520a expression. The impact of cisplatin treatment on rates of apoptosis differed dramatically between the two cell lines.

[2] = tested on: OVCAR8 cells; assay: as above
Experimental: as §1, §2

[3] = tested on: established ovarian cancer cell lines; assay: Proliferation or apoptosis in established ovarian cancer cell lines after mimic transfection; details: mimics vs control cultures; cell lines SKOV4, HEY, OVCAR8, OVCAR5
Experimental: as §1, with “Rates of proliferation and apoptosis were examined in stable transfectants 24, 48, 72 and 96 hours after selected cells had been passaged and dispensed into 96 well plates.” left out, “Cisplatin was obtained from Teva Pharmaceuticals (Irvine, Calif.).” left out

[4] = tested on: SKOV3ip1 cells; assay: Apoptosis assay (Caspase Glo 3/7)
Experimental: as §1

[5] = tested on: OVCAR8 cells; assay: Apoptosis assay (Caspase Glo 3/7)
Experimental: as §1

[6] = tested on: OVCAR8 cells; assay: Proliferation assay (MTS, Cell Titer 96 Aqueous One); details: OVCAR8, transient/acute mimic transfection vs non-silencing control, no cisplatin
Experimental: as §1

Molecule	IC50 for cisplatin in control cells ([1]; SKOV3ip1 cells expressing the non-silencing control)	IC50 for cisplatinum in control cells ([2]; OVCAR8 cells expressing a non-targeting mimic control)	Impact on proliferation or apoptosis [3]	Sensitization to cisplatin (viability) ([1]; SKOV3ip1 stable clones vs non-silencing mimic)	Sensitization to cisplatin (viability) ([2]; OVCAR8 stable clones vs non-silencing mimic, cisplatin <5 μg/mL)	Apoptosis (caspase 3/7) ([4]; SKOV3ip1, acute mimic transfection, no cisplatin)	Apoptosis in presence of cisplatin ([4]; SKOV3ip1 stable clones, cisplatin treatment)	Apoptosis (caspase 3/7) ([5]; OVCAR8, transient/acute mimic transfection vs non-silencing control, no cisplatin)	Apoptosis in presence of cisplatin ([5]; OVCAR8 stable clones, cisplatin up to 10 μg/mL)	Proliferation [6]
N.N.[Cl][Pt][Cl] [cisplatin, reference compound]	0.43 µg/mL	1.31 µg/mL	–	–	–	–	–	–	–	–
B1	–	–	impacted proliferation and/or apoptosis in some but not all	appeared to sensitize	sensitized	decreased rates of apoptosis	significantly increased	decreased rates of apoptosis	significantly decreased; also recorded: significantly lower rates of apoptosis	decreased proliferation only in OVCAR8 cells
